Data: the supplement of paper PMC10126150
± gives the standard deviation of the averaged measurements.

Tested on: ATP
Test: switch fluorescence ratio, 500 uM ATP over buffer (Cy3 cluster intensity, sum of 5 cycles each) (fold (ratio)); higher = stronger signal-on switching upon ATP binding; sequences stand for … in TCGTCGGCAGCGTCAGATGTGTATAAGAGACAGTTTTTTTTTTTTTTTTTTTTTTTTT…TC
Details: aptamer strand: ATP DNA aptamer (quencher-CACCTGGGGGAGTATTGCGGAGGAAGG + anchor), 100 nM annealed; ATP concentration: 500 uM
How it was run: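 Per cluster, summed Cy3 intensity from the target cycles was divided by that from the buffer cycles to give the fluorescence ratio, then averaged per switch-domain sequence. Clusters outside 100-1000 RFU were excluded. The Cy3-labelled switching-strand clusters, on a modified Illumina MiSeq flow-cell, were annealed to 100 nM quencher-labelled ATP aptamer and imaged in selection buffer, then after 15 min with 500 uM ATP at 22 °C, for five cycles with NaOH stripping and re-annealing between them.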
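Note: ATP exposure 15 min at 22 °C before imaging.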

Sequence	switch fluorescence ratio
GTACCCTCAA	1.03 ± 0.024
GTACCCTGGA	1.03 ± 0.03
GTACCTAACT	1.2 ± 0.025
GTACGAGTCC	1.01 ± 0.015
GTACGGGGGA	1.002 ± 0.0056
GTACTACCTA	1.14 ± 0.022
GTACTATTAT	1.038 ± 0.0052
GTACTATTTT	1.036 ± 0.0037
GTACTTCATC	1.06 ± 0.058
GTAGAATGTG	0.983 ± 0.03
GTAGAGAGGG	0.992 ± 0.053
GTAGATTGG	0.9872 ± 0.0035
GTAGCAGGCG	1.13 ± 0.058
GTAGCATATT	1.49 ± 0.011
GTAGCGATAG	4.13 ± 2.2
GTAGCGCGTC	1.03 ± 0.026
GTAGCTGGTG	1.02 ± 0.018
GTAGCTTATC	2.08 ± 0.067
GTAGGAACCT	1.8 ± 0.12
GTAGGGGATA	1.02 ± 0.026
GTAGGGGATC	1.04 ± 0.058
GTAGGTAACG	0.9867 ± 0.0079
GTAGGTATGG	0.969 ± 0.015
GTAGTAGCCA	1.01 ± 0.033
GTAGTAGGTG	1 ± 0.033

Sequence	switch fluorescence ratio
GTAGTATCAG	1 ± 0.017
GTAGTATTAT	0.991 ± 0.035
GTAGTATTTT	0.994 ± 0.028
GTAGTCATTT	0.992 ± 0.022
GTAGTCGGAT	1.002 ± 0.0021
GTAGTGGGGG	0.975 ± 0.027
GTAGTTGGAA	0.9968 ± 0.0085
GTAGTTGTGG	1.01 ± 0.014
GTATAAAAGT	1.01 ± 0.03
GTATAAGGGG	0.977 ± 0.026
GTATAAGTTT	0.998 ± 0.017
GTATAATTCA	0.975 ± 0.028
GTATGAAGTT	0.982 ± 0.028
GTATGCCGTC	0.988 ± 0.076
GTATGCCTTC	1 ± 0.032
GTATGTAGGG	0.995 ± 0.015
GTATGTAGTG	0.966 ± 0.023
GTATGTGTCG	1.01 ± 0.017
GTATTAAACC	1.06 ± 0.023
GTATTACAGG	1.04 ± 0.04
GTATTAGAAG	0.975 ± 0.047
GTATTAGGAA	0.985 ± 0.031
GTATTAGGGT	1 ± 0.041
GTATTCGGTG	0.982 ± 0.045
GTATTGGTCG	1.058 ± 0.0091

Sequence	switch fluorescence ratio
GTATTTCTTA	0.974 ± 0.0099
GTATTTGGAG	1.0226 ± 0.00041
GTATTTGGGT	0.986 ± 0.041
GTATTTTAGG	0.999 ± 0.053
GTATTTTGCG	1.12 ± 0.26
GTATTTTGGC	1.025 ± 0.0052
GTCAACGCCG	1.02 ± 0.018
GTCAATTGGA	0.992 ± 0.013
GTCACACTT	1.01 ± 0.0073
GTCACCAACA	1.27 ± 0.28
GTCACGGGCG	1.006 ± 0.0091
GTCACTTATT	1.036 ± 0.0058
GTCAGAGCTA	1.01 ± 0.025
GTCAGGAGGG	0.971 ± 0.026
GTCAGGGGGA	1.07 ± 0.14
GTCAGTGTCG	0.962 ± 0.021
GTCATATGTC	1.07 ± 0.051
GTCATCATGG	0.986 ± 0.044
GTCCACTGTT	0.996 ± 0.024
GTCCGAGAAT	0.986 ± 0.064
GTCCGGGGGC	1.13 ± 0.04
GTCCGGGTTT	1.01 ± 0.036
GTCCTTTTTT	0.97 ± 0.039
GTCGAATGGG	1 ± 0.02
GTCGATTTTT	0.992 ± 0.044

Sequence	switch fluorescence ratio
GTCGCAAGGG	1.15 ± 0.021
GTCGCAGGAG	1.05 ± 0.011
GTCGCATGAG	1.03 ± 0.05
GTCGGAGAGC	1.04 ± 0.039
GTCGGGAGGT	0.989 ± 0.015
GTCGGGAGTG	0.986 ± 0.065
GTCGGGGTAT	0.991 ± 0.012
GTCGGGGTCA	0.99653 ± 0.0006
GTCGGGTACA	1.008 ± 0.0085
GTCGGGTTTG	0.991 ± 0.014
GTCGGTGTTG	0.98952 ± 0.00042
GTCGTAAGAG	0.98 ± 0.041
GTCGTAGGAT	0.9915 ± 0.0065
GTCGTATGAG	1.01 ± 0.028
GTCGTCGGCG	1.02 ± 0.025
GTCGTCTTTT	1.01 ± 0.012
GTCGTGCCTG	1.04 ± 0.15
GTCGTGGCAA	1.04 ± 0.022
GTCGTGTCTG	1.004 ± 0.0065
GTCGTGTGGT	0.99 ± 0.045
GTCTAACTGC	0.962 ± 0.033
GTCTAAGGGA	0.968 ± 0.024
GTCTATACAT	0.973 ± 0.028
GTCTATCTCT	1.013 ± 0.0093
GTCTCAGGTT	1.04 ± 0.014

Sequence	switch fluorescence ratio
GTCTCGGCAT	1.2 ± 0.044
GTCTGAGGTT	0.963 ± 0.015
GTCTGGGCTG	0.986 ± 0.014
GTCTTGGGTA	0.963 ± 0.024
GTGAAACGGT	1.03 ± 0.043
GTGAACATAT	1.036 ± 0.0022
GTGACAGAGG	1.02 ± 0.0015
GTGACTGTGT	0.963 ± 0.014
GTGAGATTGC	0.95675 ± 0.0008
GTGAGCCAGT	1.01 ± 0.022
GTGAGGAGTA	1.001 ± 0.0093
GTGAGGGGCG	0.964 ± 0.035
GTGAGGGTTT	0.9758 ± 0.005
GTGAGTGGTG	0.978 ± 0.015
GTGATATAAG	0.986 ± 0.031
GTGATATGGA	0.992 ± 0.014
GTGATCGTCG	1.01 ± 0.017
GTGATGCAGG	0.98 ± 0.026
GTGATGCTGC	1.07 ± 0.015
GTGATTCAGG	0.989 ± 0.029
GTGATTCCGA	1.02 ± 0.029
GTGATTCTTG	0.9745 ± 0.0022
GTGATTGGAG	0.966 ± 0.025
GTGCATGGGA	0.997 ± 0.055
GTGCCTAGTG	1.017 ± 0.01

Sequence	switch fluorescence ratio
GTGCGCGGCC	1.01 ± 0.051
GTGCTCAGGG	1.02 ± 0.077
GTGGAAAGTA	0.997 ± 0.011
GTGGAAATCA	1.01 ± 0.029
GTGGAAATGG	1.01 ± 0.022
GTGGAACCTT	1.24 ± 0.2
GTGGAAGGCA	0.9925 ± 0.0025
GTGGAAGGGT	1.02 ± 0.042
GTGGAATTTT	1.01 ± 0.0057
GTGGACAAGG	0.978 ± 0.031
GTGGACATTA	1.01 ± 0.012
GTGGAGTAAG	1.01 ± 0.023
GTGGATACTA	1.009 ± 0.0047
GTGGATAGGT	1.01 ± 0.045
GTGGATATAG	0.99333 ± 0.00046
GTGGATTTGA	1.01 ± 0.013
GTGGCAACAA	0.984 ± 0.035
GTGGCCCCGG	1.02 ± 0.043
GTGGGAAAGT	1.04 ± 0.015
GTGGGAATGG	0.9747 ± 0.0072
GTGGGAGCGT	0.97882 ± 0.00039
GTGGGAGGGG	1 ± 0.015
GTGGGAGTTG	0.969 ± 0.04
GTGGGATTGG	1.01 ± 0.027
GTGGGATTTT	0.986 ± 0.062

Sequence	switch fluorescence ratio
GTGGGCAGCG	0.9666 ± 0.0047
GTGGGCCAGC	0.964 ± 0.082
GTGGGCCTTT	0.987 ± 0.015
GTGGGCTGTT	1.01 ± 0.06
GTGGGGAAAA	0.994 ± 0.035
GTGGGGCGCA	1.01 ± 0.026
GTGGGGCGTG	1 ± 0.03
GTGGGGGATT	0.996 ± 0.03
GTGGGGGGAA	0.98 ± 0.018
GTGGGGGGAT	0.999 ± 0.023
GTGGGGGGCA	0.991 ± 0.033
GTGGGGGGGT	0.992 ± 0.026
GTGGGGGTAG	0.99 ± 0.032
GTGGGGTAAG	0.987 ± 0.014
GTGGGGTCGG	0.979 ± 0.0057
GTGGGGTGTG	1.01 ± 0.021
GTGGGGTTGG	0.981 ± 0.021
GTGGGTATGG	1.002 ± 0.01
GTGGGTATGT	0.983 ± 0.017
GTGGGTCGTA	0.985 ± 0.046
GTGGGTTATT	0.999 ± 0.016
GTGGGTTTGC	1.03 ± 0.03
GTGGTAAACG	1 ± 0.029
GTGGTACGGA	1.0044 ± 0.00029
GTGGTATATG	0.997 ± 0.0073

Sequence	switch fluorescence ratio
GTGGTCAGGC	0.975 ± 0.022
GTGGTCAGGG	0.9855 ± 0.0092
GTGGTCGAGA	0.986 ± 0.033
GTGGTCGGTA	0.952 ± 0.084
GTGGTCTCCG	0.982 ± 0.038
GTGGTGAAGG	0.99 ± 0.039
GTGGTGAGGT	0.966 ± 0.02
GTGGTGCGGA	0.943 ± 0.052
GTGGTGGGAC	0.972 ± 0.042
GTGGTGGGGA	1 ± 0.024
GTGGTGGGGT	1.01 ± 0.028
GTGGTGGGTA	0.947 ± 0.073
GTGGTGTATC	1.02 ± 0.019
GTGGTGTCGT	0.984 ± 0.016
GTGGTGTGTT	1.05 ± 0.14
GTGGTGTTTT	1 ± 0.015
GTGGTTGGGG	1.01 ± 0.028
GTGGTTGGTA	1.02 ± 0.03
GTGGTTTCTG	0.984 ± 0.1
GTGGTTTTTT	0.996 ± 0.022
GTGTAAAGAC	1.03 ± 0.053
GTGTAAAGTG	0.949 ± 0.047
GTGTAAAGTT	0.972 ± 0.021
GTGTAAGATG	1.0023 ± 0.0005
GTGTAATGAG	0.964 ± 0.014
